Measured values taken from the DeepSol protein solubility set.

Assay: soluble on expression in E. coli; label from the status in PepcDB or PDB records

| Sequence | soluble on expression in E. coli |
| --- | --- |
| DKQKALKKIAKCLELGNSANINEAANAIKMAHNLMLKYGLDKDDIEFIKMGKTQSTHLLPAAISSGILRVIRGINTRFGVEAVLLNHKGLKRVEFIGEADRAIFAAFAFDIIYREMNEQTGQFRNSFAGTGTSSLEVTRRVNSFVSGWIEGALEKLPIITPDEDSMNKINSYIDKEFENIDRETFKQQLREAMKNLTEDYETGLKKGRRVSVNRPIHGAQAPKLLK | not soluble |
| MAHHHHHHMGGPPRKREREGEALKPKSKEEQLPIKNECTLDRREGKQIVAEKWSEVVVDDNESQERSNESVSESQVYDTEEELLAAGEDLSGDALKDFLRKNFVDFIDEKVARVGDLDLMN | not soluble |
| MYFKMITSAPWVLYPEIGEDPSKKWIFREPKISDGDGIYSLIADCPPLDMNSSYCNFLQSTHFSKTSILVEHKGDIAGFISGYQKPDEQDVLFIWQVAVSPRFRGNGLAFRMLKELLEREALSEVKSVETTITEDNQASWALFKKLDAMNGNHGQVSTFLDEKAHFKGKHDTEFLYRIPLK | not soluble |
| MIFVLDVGNTNTVLGVYDGDELKHHWRIETSRSKTEDEYGMMIKALLNHVGLQFSDIRGIIISSVVPPIMFALERMCLKYFHIKPLIVGPGIKTGLDIKYDNPREVGADRIVNAVAGIHLYGSPLIIVDFGTATTYCYINEHKQYMGGAIAPGIMISTEALFARAAKLPRIEIARPDDIIGKNTVSAMQAGILYGYVGQVEGIVSRMKAKSKIPPKVIATGGLAPLIASESDIIDVVDPFLTLTGLKLLYEKNTEKKG | soluble |
| MVLGEYYAVAGHIGFGGKADARHMGNDPRRALVHPPFLPDFGQHIFFHRALEPENRWKRMAGRPRTSAARAFCRQ | not soluble |
| MGSDKIHHHHHHMTRGIYNAAMGMLVDMAKLDRIANDLANVDTAGYKQDREAFRAYLRREVFRQEPNPVESRTKKVPIGPLEYATVLDEVRTDLSQGPVEETDVPYHLAINGEGFFRIEFNGGEYYTRNGEFTVNSEGYIVTNYGGYLLDENGERVRFFDDFTVDEEGYVRDAYGNIVTRIGVYNLENPEKFGNTLFTGENPSPSENFRIMQGYVEKSNVDALKAMVDMISAMRHYELSQRAVTVNDELNGKLINSLASLK | not soluble |
| MRLSFLTLQRRNAVGDALRHKSALRRILKTGRRASGTACDAERRTIVEKLPHDSLEHHHHHH | not soluble |
| MGSDKIHHHHHHMKKIAILYPAHYEQSSGGAEIQILYLINACKQQNWEIHYIFEDKGTDIKNKENIVLHPLCKMKNYKFCGKGWFLYEKQILRELNAIKPDTIYTRIGSSWIGIATSYAKNHKVKHAHALASDSSVTRKLLGKPLYPLFSQIETYYINKGLVGADVIIAQNVFQQQMLSKRYGKESILVNQMTPSVDESCLQKKYNKIKIIWVANFKELKHPELFVQLAKDLKGHSDRIEMYMCGRSTSKYNNLLQDLNHIDYLNYLGSLDQEQVFDLMNEAHILVNTSEYEGFSNTFVQAWMRKVVVVSMNSNPSDILTSQGIGFLTPNMTNLVATIHKLIEHPEIISELGEKSYQYALENHDLNKNMKKIIEVL | not soluble |
| MSLDIAYFTKTLEGLPLEKAAEITAGLGFDCADLLIRDGHAVSPDRPEGIANAVKFFAAAGVRTSMATIDSARPDDAASRLLSCCGEAGIGQIRLGFWRYDPSRRWRVQVDEARRDLDGFERLADRFGIKLTIQLHGGTLHSSGALAVQLLAGRDPIRLGAYPDPANQIIREGSEDWRLTLDILDPWFCCMGVKNSGWFPGAYGSHGQRAWHSDWYGLDEGMVPWNEIVPHLVATGFTGVLSMHSQYRVSREQALDKVRADLAHFRRLVAAAKEGHHHHHH | not soluble |
| MGSDKIHHHHHHMLSKICMKILTVLDSYPPDLNGGAYFTHRLAKFLQAKGHEVLVICPSRSLKQGYTSYEGVNLYGVRSWPALGYKNFRVCWPFFIKKGILKAITDFNPDVVHLQGKFFLGGICYRACRKKGIPLMATNHFMPENFFHYTHLPKYFEKWFHRTTWNIVIDMLNHVKIVTTPTHTAANLLKEVHIQKEIHVVSCGVDLQKFQPKQNANLIRQRYKIPDKPILLYAGRLDKEKNLSIAIKAFYKARQSIDAHFVLTGRGAELQRLKKLVQTLNLTEHVTFTGYLSDAEYPLVYSLANCFVNPGTAELQSIVALEAIASGLPLLAAKAMALPELVKEGVNGYLFDPNDVETLSCYMVKILSDRTFSEQMGRESRKLSQEHDIKRTIEQYETLYQSMVS | not soluble |
| MGSDKIHHHHHHMQMKQVLLEARQDFLSLLKRRGWKEKDLNILRGIFLGELSRVDVPADIFELAIKEAVKGNLKLSSKLLGVSEIDTLEILFWYLPKKYPLPSERLKKRLKAESVKEFIEEANRLRVKLGKKDFMELYLHLEEAEEEEEKRENTDLLERVRNLSIEKLSESEIEELRYFYSLLDLRGKESVRTLNVHPYILSAIIRNPSAPIVIDGSNLLWRGGLSVSYIYEVFERLAVFREFFFPYRIVFDRNAEFVLPVHERKGFERWKNSPNVLFESPADGLIISLANTMDAVVLSGDRFRDHGLPRRVRVLTPEEIEKG | not soluble |
| MGSDKIHHHHHHMTARTSALAIEIDRQDRSPIYLQICERFRTAIAAGHLRPGDRVPALRGLALQLNTARGTVEMAYTILVDEGYLQMRGAAGTFVSASLPASVTRPARGGDREQPPAREQGATKSSHALRGRQPATRQLAIAVAMSGEPKLLQPGLPALDAFPRKLWNRLVSRCARSGERAMLAYPDPVGYRALREHIATYLGLSRGVACVPEQVFITAGYRATLELVLRSLASPNDRMWFEDPGYLLARGFLAEVGVNLVPVPIDSEGIDVDRGIALDPLARFALVTPSHQAPLGYTLSLARRMALLDWAAKGSSWIIEDDYDSEFRYVGRPLPALKSLDKDDRVIYCGTFSKVMFPGLRLAYAVVPERAVERVERVACSMNAGSPTLLQAAVADFIEQGHFARHVKRMRALYGQRRTLIAHALEQAFGERMLVELPHGGIQFAVQFAEGPDGPVDDVAVAARARDAGLAVVPLSIWYANGRTRRTPRGLVMGFANVTDAREALRLARTLYGCLTG | not soluble |
| MIKKGYHVAVVGATGAVGQKIIELLENEMKFNVVEVTLLSSKRSAGKKVRFKGREIIIQEAKTTSFEGVDIAFFSAGGEVSRQFVTHAVSSGAIVIDNTSEYRMAQGVPLVVPEVNAHTLKQHKGIIAVPNCSALQMVTALQPIRKSFGLERIIVSTYQAVSGSGIHAIHELREQAKSILAGEEVKSDILPVKKDKKHYPIAFNVLPQVDIFTDNDFTFEEVKMIQETKKILEDENLKMAATCVRVPVVSGHSESVYIELEKEASVAEIKGILMDAPGVILQDNPSEQLYPMPLYAEGKIDTFVGRIRKDPDTPNGFHLWIVSDNLLKGAAWNSVQIAETLVEKGIL | not soluble |
| FYHDYTVTQDELLKDSSDALKKEFLKILDKAIKRLILMANGDTIVIPLSGGYDSRAIATMLKKNGYENVILYTYGKPDSTEVRVAREVAKNLEFEWIFVEQNEDIVDPDYPERDFFLEFYKYAFNHVSTIHLQDFFVFKHLHDNSVIPKNSIIVPGHSGDFLGGSHLRKLPIPKSKRDVFNTILIKHYIVNEHIKLSPYVVKKINEYLNSFSEHTLPYSLDDNWNMKERQAKFIVNSNRTYEFFGYRHAIPLWDLELVEFFRRVPLEYKTKEVIYSDALRESVFKDFGVVLSQKDVANTMALEFYHRIFHSMEIFRHIRYFAEKN | not soluble |
| RMNLFDLGTHHALVDYAHNPAGYEAVGAFVKNWPGERIGVVGGPGDRRDEDLILLGRIAAAVFDRIIVKEDDDKRGRHAGEVADLIRQGIQEENPNCQYETILDEQRALNVALDEAPQEALVVIFPES | not soluble |
| MSWQTYVDEHLMCDIDGQGEELAASAIVGHDGSVWAQSSSFPQFKPQEITGIMKDFEEPGHLAPTGLHLGGIKYMVIQGEAGAVIRGKKGSGGITIKKTGQALVFGIYEEPVTPGQCNMVVERLGDYLIDQGL | soluble |
| MTCEVLITEFVAHPSDITDAYARYQQRIQDAPLHIVCSSPRPLPSKGSAYAQWSLRCESAYAQKSHPELMQCYELRSLVTYEETPDPDDSLIEKFFFEDCAEPTVYSASVNRLDIELGAVDTRCTDELCIVTPVFLAHSEHAEVLQSLYEVLVSNADPVAYAASIAECDDISQANLIGLLWVRDAQRTMSNVGDQIYAMGKTAWTGWILVEASKQEELQLQLSELIDATNAVAYLTATPW | soluble |
| GGIYGIGLDITELKRIASMAGRQKRFAERILTRSELDQYYELSEKRKNEFLAGRFAAKEAFSKAFGTGIGRQLSFQDIEIRKDQNGKPYIICTKLSPAAVHVSITHTKEYAAAQVVIERLSS | soluble |
| GSVPVILEVAGIGKYAISIGGERQEGLTEEMVTQLSRQEFDKDNNTLFLVGGAKEVPYEEVIKALNLLHLAGIK | soluble |
| VVTRIVILGGGPAGYEAALVAATSHPETTQVTVIDCDGIGGAAVLDDCVPSKTFIASTGLRTELRRAPHLGFHIDFDDAKISLPQIHARVKTLAAAQSADITAQLLSMGVQVIAGRGELIDSTPGLARHRIKATAADGSTSEHEADVVLVATGASPRILPSAQPDGERILTWRQLYDLDALPDHLIVVGSGVTGAEFVDAYTELGVPVTVVASQDHVLPYEDADAALVLEESFAERGVRLFKNARAASVTRTGAGVLVTMTDGRTVEGSHALMTIGSVPNTSGLGLERVGIQLGRGNYLTVDRVSRTLATGIYAAGDCTGLLPLASVAAMQGRIAMYHALGEGVSPIRLRTVAATVFTRPEIAAVGVPQSVIDAGSVAARTIMLPLRTNARAKMSEMRHGFVKIFCRRSTGVVIGGVVVAPIASELILPIAVAVQNRITVNELAQTLAVYPSLSGSITEAARRLMAHDDLDCTAAQDAAEQLALVPHHLPTSN | soluble |
| MSLGNPHMPLLLALSKGFVEPVYRAAFLASAASSGVLAALAVRPCDLESLAERLDIDDEDLPRLKEWLDMGIRLGDLGKREGCYKLRSLPAKALAQPGNDAIAAALEEVLRFHVPALLNGPRMLREGRRFSLDDQDGLVIARSTRVIQPLVEEAIARTLDRNAPVRLLEVGCGSGTYVRYAAELNPRLSALAVDLQQDVADSAAANMAEWGLTDRVETRQADLRTLDAQPQFDLVTLHNNIYYFPEAERVEALRRAHDLLAPGGRLLLTTSCKGGNVGLEALNLWFTYADFGGPLPQADALADQLRQAGFDDVEATRIVPGEQFHAFTGTSKRVAHAEGHHHHHH | not soluble |
| MAHHHHHHMSVEEVQNAAAMADEEIPTLEAAEVPQNAKQSKRYAKAMAKMGLKPEPNITKVTIRKVGSLSFAMVQPEVYRFPGTNTFVIFGEAQLEDTSALAQEAAARAAVSGAASASSDAAASVPAAEEDDDEEVDAGDLDEKEINVVMSQANVSRSKAIKALKNNNGDIVNTIMELTM | soluble |
| MSLSDILILTHAEFCPPGHLATVLAQRGLDFRVVRADLGQLAGLDAERPRAVAIMGGPMSVNDDLPWLGDELALLRRFIERRIPLLGHCLGGQLLARVLGATVRQQPYTEMGWQPMQRESRDSPWLAHLPERFAIFQWHGDAFDLPQGAERLLSSAWCENQAFSWGGHVLGLQGHPEMTEELVRRWIDGWPQLLDSSQPSQQSREAMLADLPLKVAALNRVAEGFYRHWLSLLREGHHHHHH | not soluble |
| MGSDKIHHHHHHMNWDNARFFLALARTGTLRGAAAQLNVDQATVGRRIAALEDELSARLFLRTPALYVLTTAGEALLEPAETMERASLTIERRVMGLDEQLAGTVRIATTDSLGKRFVIPAIARLRRRHAGIDVVCVTSTEIANLTRREADLAIRTLRPESPDLIVRRLGHLETGIYASRHYLAERGEPVAGSAFDGHDLVMYQQPVMPTMWDALCGEPTSRGRVMFQTSSTMMLVEAALAGLGIAELPCFRAEAEPELVRLMARRCNHFDVWLVAHADLYKTARVQAVIEAVVEEFATAAPSTR | not soluble |
